Results: IntAct's records for PubMed 20974926

B1: Eukaryotic peptide chain release factor GTP-binding subunit (Schizosaccharomyces pombe (strain ATCC 38366 / 972)), O74718 (parent)
chain: MASNQPNNGEQDEQLAKQTSKLSMSAKAPTFTPKAAPFIPSFQRPGFVPVNNIAGGYPYAQYTGQGQNSNSPHPTKSYQQYYQKPTGNTVDEDKSRVPDFSKKKSFVPPKPAIPKGKVLSLGGNTSAPKSTKPISISLGGTKAPTTTKPAAPAAQSKTETPAPKVTSESTKKETAAPPPQETPTKSADAELAKTPSAPAAALKKAAEAAEPATVTEDATDLQNEVDQELLKDMYGKEHVNIVFIGHVDAGKSTLGGNILFLTGMVDKRTMEKIEREAKEAGKESWYLSWALDSTSEEREKGKTVEVGRAYFETEHRRFSLLDAPGHKGYVTNMINGASQADIGVLVISARRGEFEAGFERGGQTREHAVLARTQGINHLVVVINKMDEPSVQWSEERYKECVDKLSMFLRRVAGYNSKTDVKYMPVSAYTGQNVKDRVDSSVCPWYQGPSLLEYLDSMTHLERKVNAPFIMPIASKYKDLGTILEGKIEAGSIKKNSNVLVMPINQTLEVTAIYDEADEEISSSICGDQVRLRVRGDDSDVQTGYVLTSTKNPVHATTRFIAQIAILELPSILTTGYSCVMHIHTAVEEVSFAKLLHKLDKTNRKSKKPPMFATKGMKIIAELETQTPVCMERFEDYQYMGRFTLRDQGTTVAVGKVVKILD
partner: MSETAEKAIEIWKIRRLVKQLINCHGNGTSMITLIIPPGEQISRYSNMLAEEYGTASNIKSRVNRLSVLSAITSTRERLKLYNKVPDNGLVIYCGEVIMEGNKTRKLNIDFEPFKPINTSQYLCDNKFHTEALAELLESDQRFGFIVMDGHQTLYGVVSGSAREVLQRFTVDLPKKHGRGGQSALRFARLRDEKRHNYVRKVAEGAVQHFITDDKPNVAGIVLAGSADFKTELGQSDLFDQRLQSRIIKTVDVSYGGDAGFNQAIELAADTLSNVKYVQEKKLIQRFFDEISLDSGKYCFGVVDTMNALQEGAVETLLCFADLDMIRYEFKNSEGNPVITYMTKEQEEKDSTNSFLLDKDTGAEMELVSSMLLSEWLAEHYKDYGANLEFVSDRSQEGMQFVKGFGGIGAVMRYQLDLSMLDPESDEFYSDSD
B2: Elongation factor 1-alpha (Aeropyrum pernix (strain ATCC 700893 / DSM 11879 / JCM 9820 / NBRC 100138 / K1)), Q9YAV0 (parent)
chain: MAEKPHMNLVVIGHVDHGKSTLVGHLLYRLGYIEEKKLKELEEQAKSRGKESFKFAWILDKMKEERERGITIDLTFMKFETKKYVFTIIDAPGHRDFVKNMITGASQADAAILVVSARKGEFEAGMSTEGQTREHLLLARTMGIEQIIVAVNKMDAPDVNYDQKRYEFVVSVLKKFMKGLGYQVDKIPFIPVSAWKGDNLIERSPNMPWYNGPTLVEALDQLQPPAKPVDKPLRIPVQNVYSIPGAGTVPVGRVETGVLRVGDKVVFMPPGVVGEVRSIEMHYQQLQQAEPGDNIGFAVRGVSKSDIKRGDVAGHLDKPPTVAEEFEARIFVIWHPSAITVGYTPVIHVHTASVSSRIIEIKAKLDPKTGQVVEQNPQFLKAGDAAIVRFKPVKPLVVEKFSEIPQLGRFAMRDMNRTVGIGIVTDVKPAKVDIKAK
partner: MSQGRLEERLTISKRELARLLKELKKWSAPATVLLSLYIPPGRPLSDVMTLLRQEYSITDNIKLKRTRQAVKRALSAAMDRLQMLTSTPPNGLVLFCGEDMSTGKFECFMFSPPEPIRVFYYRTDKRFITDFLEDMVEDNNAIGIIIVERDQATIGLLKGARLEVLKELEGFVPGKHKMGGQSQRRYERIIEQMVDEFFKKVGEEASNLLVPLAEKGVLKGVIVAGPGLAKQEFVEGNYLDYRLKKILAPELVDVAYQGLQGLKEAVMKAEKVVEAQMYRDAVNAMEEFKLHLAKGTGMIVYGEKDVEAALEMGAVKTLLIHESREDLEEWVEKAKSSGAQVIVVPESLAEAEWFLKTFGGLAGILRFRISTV

Variants of: B1
Settings: with erf1_schpo sup45, P79063
With E297A the “effect of a mutation on the interaction” value was “decreasing interaction”. For E305A, the “effect of a mutation on the interaction” value was “decreasing interaction”. For Y329A, the “effect of a mutation on the interaction” value was “disrupting interaction”. With Y477A the “effect of a mutation on the interaction” value was “disrupting interaction”.

Variants of: B2
Settings: with rf1_aerpe prf1, Q9YAF1
MAEKPHMNLVVIGHVDHGKSTLVGHLLYRLGYIEEKKLKELEEQAKSRGKESFKFAWILDKMKEERERGITIDLTFMKFETKKYVFTIIDAPGHRDFVKNMITGASQADAAILVVSARKGEFEAGMSTEGQTREHLLLARTMGIEQIIVAVNKMDAPDVNYDQKRYEFVVSVLKKFMKGLGYQVDKIPFIPVSAWKGDNLIERSPNMPWYNGPTLVEALDQLQPPAKPVDKPLRIPVQNVYSIPGAGTVPVGRVETGVLRVGDKVVFMPPGVVGEVRSIEMHYQQLQQAEPGDNIGFAVRGVSKSDIKRGDVAGHLDKPPTVAEEFEARIFVIWHPSSITVGYTPVIHVHTASVSSRIIEIKAKLDPKTGQVVEQNPQFLKAGDAAIVRFKPVKPLVVEKFSEIPQLGRFAMRDMNRTVGIGIVTDVKPAKVDIKAK [A338S] was tested, and the “effect of a mutation on the interaction” value was “disrupting interaction”. MAEKPHMNLVVIGHVDHGKSTLVGHLLYRLGYIEEKKLKELEEQAKSRGKESFKFAWILDKMKEERERGITIDLTFMKFETKKYVFTIIDAPGHRDFVKNMITGASQADAAILVVSARKGEFEAGMSTEGQTREHLLLARTMGIEQIIVAVNKMDAPDVNYDQKRYEFVVSVLKKFMKGLGYQVDKIPFIPVSAWKGDNLIERSPNMPWYNGPTLVEALDQLQPPAKPVDKPLRIPVQNVYSIPGAGTVPVGRVETGVLRVGDKVVFMPPGVVGEVRSIEMHYQQLQQAEPGDNIGFAVRGVSKSDIKRGDVAGHLDKPPTVAEEFEARIFVIWHPAAITVGYTPVIHVHTASVSSRIIEIKAKLDPKTGQVVEQNPQFLKAGDAAIVRFKPVKPLVVEKFSEIPQLGRFAMRDMNRTVGIGIVTDVKPAKVDIKAK [S337A] was tested, and the “effect of a mutation on the interaction” value was “disrupting interaction”. With MAEKPHMNLVVIGHVDHGKSTLVGHLLYRLGYIEEKKLKELEEQAKSRGKESFKFAWILDKMKEARERGITIDLTFMKFETKKYVFTIIDAPGHRDFVKNMITGASQADAAILVVSARKGEFEAGMSTEGQTREHLLLARTMGIEQIIVAVNKMDAPDVNYDQKRYEFVVSVLKKFMKGLGYQVDKIPFIPVSAWKGDNLIERSPNMPWYNGPTLVEALDQLQPPAKPVDKPLRIPVQNVYSIPGAGTVPVGRVETGVLRVGDKVVFMPPGVVGEVRSIEMHYQQLQQAEPGDNIGFAVRGVSKSDIKRGDVAGHLDKPPTVAEEFEARIFVIWHPSAITVGYTPVIHVHTASVSSRIIEIKAKLDPKTGQVVEQNPQFLKAGDAAIVRFKPVKPLVVEKFSEIPQLGRFAMRDMNRTVGIGIVTDVKPAKVDIKAK [E65A] the “effect of a mutation on the interaction” value was “decreasing interaction”. MAEKPHMNLVVIGHVDHGKSTLVGHLLYRLGYIEEKKLKELEEQAKSRGKESFKFAWILDKMKAERERGITIDLTFMKFETKKYVFTIIDAPGHRDFVKNMITGASQADAAILVVSARKGEFEAGMSTEGQTREHLLLARTMGIEQIIVAVNKMDAPDVNYDQKRYEFVVSVLKKFMKGLGYQVDKIPFIPVSAWKGDNLIERSPNMPWYNGPTLVEALDQLQPPAKPVDKPLRIPVQNVYSIPGAGTVPVGRVETGVLRVGDKVVFMPPGVVGEVRSIEMHYQQLQQAEPGDNIGFAVRGVSKSDIKRGDVAGHLDKPPTVAEEFEARIFVIWHPSAITVGYTPVIHVHTASVSSRIIEIKAKLDPKTGQVVEQNPQFLKAGDAAIVRFKPVKPLVVEKFSEIPQLGRFAMRDMNRTVGIGIVTDVKPAKVDIKAK [E64A] was tested, and the “effect of a mutation on the interaction” value was “disrupting interaction”. For MAEKPHMNLVVIGHVDHGKSTLVGHLLYRLGYIEEKKLKELEEQAKSRGKESFKFAWILDKMKEERERGITIALTFMKFETKKYVFTIIDAPGHRDFVKNMITGASQADAAILVVSARKGEFEAGMSTEGQTREHLLLARTMGIEQIIVAVNKMDAPDVNYDQKRYEFVVSVLKKFMKGLGYQVDKIPFIPVSAWKGDNLIERSPNMPWYNGPTLVEALDQLQPPAKPVDKPLRIPVQNVYSIPGAGTVPVGRVETGVLRVGDKVVFMPPGVVGEVRSIEMHYQQLQQAEPGDNIGFAVRGVSKSDIKRGDVAGHLDKPPTVAEEFEARIFVIWHPSAITVGYTPVIHVHTASVSSRIIEIKAKLDPKTGQVVEQNPQFLKAGDAAIVRFKPVKPLVVEKFSEIPQLGRFAMRDMNRTVGIGIVTDVKPAKVDIKAK [D73A], the “effect of a mutation on the interaction” value was “decreasing interaction”. MAEKPHMNLVVIGHVDHGKSTLVGHLLYRLGYIEEKKLKELEEQAKSRGKESFKFAWILDKMKEERERGITIDLTFMKFETKKYVFTIIDAPGHRDFVKNMITGASQADAAILVVSARKGEFEAGMSTEGQTREHLLLARTMGIEQIIVAVNKMDAPDVNYDQKRYEFVVSVLKKFMKGLGYQVDKIPFIPVSAWKGDNLIERSPNMPWYNGPTLVEALDQLQPPAKPVDKPLRIPVQNVYSIPGAGTVPVGRVETGVLRVGDKVVFMPPGVVGEVRSIEMHYQQLQQAEPGDNIGFAVRGVSKSDIKRGDVAGHLDKPPTVAEEFEARIFVIWHPSAITVGYTPVIHVHTASVSSRIIEIKAKLDPKTGQVVEQNPQALKAGDAAIVRFKPVKPLVVEKFSEIPQLGRFAMRDMNRTVGIGIVTDVKPAKVDIKAK [F379A] was tested, and the “effect of a mutation on the interaction” value was “disrupting interaction”.
